Drawing on patent US10654911, this text covers Kd for one substance.

In the assay the target is recombinant FVIII (Prospec Bio) (UniProt P00451). Briefly: ELISA: vWF-Fc variant coated on the plate, recombinant FVIII at 0-4000 pM, detected with sheep anti-FVIII polyclonal antibody and HRP secondary antibody. (In general: In an ELISA, binding on a coated surface is turned into a signal by an enzyme label.)
UniProt P00451, sequence (P00451 other isoform, or with tags, fused parts or gaps limits assumed): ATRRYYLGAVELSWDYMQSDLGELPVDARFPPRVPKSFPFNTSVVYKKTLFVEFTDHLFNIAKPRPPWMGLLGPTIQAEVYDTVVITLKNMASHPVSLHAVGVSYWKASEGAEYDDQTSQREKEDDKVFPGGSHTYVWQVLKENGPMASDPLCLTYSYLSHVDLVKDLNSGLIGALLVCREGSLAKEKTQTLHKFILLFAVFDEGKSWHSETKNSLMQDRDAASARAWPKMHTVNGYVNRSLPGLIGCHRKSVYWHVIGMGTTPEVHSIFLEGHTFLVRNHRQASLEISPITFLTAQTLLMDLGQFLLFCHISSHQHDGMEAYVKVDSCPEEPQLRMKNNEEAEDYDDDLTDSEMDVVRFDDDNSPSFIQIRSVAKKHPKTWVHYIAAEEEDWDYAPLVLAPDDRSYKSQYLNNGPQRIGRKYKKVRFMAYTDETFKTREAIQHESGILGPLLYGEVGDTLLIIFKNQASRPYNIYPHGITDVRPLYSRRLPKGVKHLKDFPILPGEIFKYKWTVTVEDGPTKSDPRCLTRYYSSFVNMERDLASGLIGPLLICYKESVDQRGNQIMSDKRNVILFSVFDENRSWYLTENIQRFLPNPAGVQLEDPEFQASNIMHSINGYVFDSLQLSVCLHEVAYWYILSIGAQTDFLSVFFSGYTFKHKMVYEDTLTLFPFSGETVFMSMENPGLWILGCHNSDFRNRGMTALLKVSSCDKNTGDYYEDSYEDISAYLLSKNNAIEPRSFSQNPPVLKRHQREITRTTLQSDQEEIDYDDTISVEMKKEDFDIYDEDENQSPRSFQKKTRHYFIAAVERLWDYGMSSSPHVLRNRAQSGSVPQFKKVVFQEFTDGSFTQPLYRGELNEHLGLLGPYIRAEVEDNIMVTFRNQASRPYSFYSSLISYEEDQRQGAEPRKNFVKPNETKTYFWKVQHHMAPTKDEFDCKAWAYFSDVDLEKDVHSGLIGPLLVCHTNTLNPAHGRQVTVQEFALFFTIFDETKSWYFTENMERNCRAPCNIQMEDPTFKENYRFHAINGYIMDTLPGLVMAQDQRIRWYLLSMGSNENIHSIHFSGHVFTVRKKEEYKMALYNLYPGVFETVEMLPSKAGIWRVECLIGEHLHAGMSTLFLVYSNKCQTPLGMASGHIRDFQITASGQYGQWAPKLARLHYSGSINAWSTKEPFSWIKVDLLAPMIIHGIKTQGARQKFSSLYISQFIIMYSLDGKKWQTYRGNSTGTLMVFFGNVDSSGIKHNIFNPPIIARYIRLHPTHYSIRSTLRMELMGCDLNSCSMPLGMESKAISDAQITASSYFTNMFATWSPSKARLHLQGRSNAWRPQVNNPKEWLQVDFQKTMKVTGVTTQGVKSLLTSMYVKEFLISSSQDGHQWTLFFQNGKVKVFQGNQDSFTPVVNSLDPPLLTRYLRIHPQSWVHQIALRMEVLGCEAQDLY

Usually Kd stands for the equilibrium constant for the complex coming apart. With Pro-D′D3-Fc (Fc fusion), the Kd came to 0.5 nM.
